Reference: US20240294593A1 (Genentech, published 2024)

Assays:
human PD-1-His [1] = molecular target: T1, human PD-1-His (human, UniProt Q15116 25-167, limits assumed); assay: Octet (BLI), AHC capture of the bivalent mAb, PD-1 in solution
T1 construct: Antigen of the Octet assays; not shown: His tag
Source text: (§1) In particular, anti-human IgG-Fc (AHC) biosensors were used to capture the test articles and dipped into multiple concentrations of PD-1.

human PD-1-His [2] = molecular target: T1, human PD-1-His; assay: Octet (BLI), AHC biosensors capture the bivalent mAb, dipped into multiple concentrations of PD-1; KDapp per legend
Source text: as §1

human PD-1-His [3] = molecular target: T1, human PD-1-His; assay: Octet (BLI); antibody captured on anti-human Fc (AHC) biosensors and dipped into multiple concentrations of human PD-1-His

T1 sequence (Q15116 25-167 limits assumed): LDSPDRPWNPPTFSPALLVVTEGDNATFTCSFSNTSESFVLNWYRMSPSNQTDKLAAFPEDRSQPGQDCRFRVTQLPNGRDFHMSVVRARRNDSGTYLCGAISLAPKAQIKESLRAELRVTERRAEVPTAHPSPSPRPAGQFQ

Binder	koff (human PD-1-His [1]) [s⁻¹]	kon (human PD-1-His [1]) [M⁻¹ s⁻¹]	Kd (human PD-1-His [2]) [µM]	binding result (human PD-1-His [3])
H1.221_L1.1 (XENP32837) (antibody, human IgG1, kappa, V domains shown, VH substitution L110R/W112F (Xencor #); L98R/W100F (Kabat); also called mAb C[PD1]_H1.221_L1.1_IgG1_PVA_/S267K) VH: EVQLVESGGGLVQPGGSLRLSCAASGFTFSSFGMHWVRQAPGKGLEWVSYISSGSSIIYYADSVKGRFTISRDNAKNSLYLQMNSLRAEDTAVYYCARGGRRVFSPDYWGQGTLVTVSS VL: DIVMTQSPDSLAVSLGERATINCKSSQSLLHSGNQKNYLTWYQQKPGQPPKLLIYWASTRESGVPDRFTGSGSGTDFTLTISSLQAEDVAVYYCQNDYSYPFTFGSGTKLEIKR	0.00477	136000	0.0351	–
H1.224_L1.1 (XENP32840) (antibody, human IgG1, kappa, V domains shown, VH substitution L110R/V111L/W112F (Xencor #); L98R/V99L/W100F (Kabat); also called mAb C[PD1]_H1.224_L1.1_IgG1_PVA_/S267K) VH: EVQLVESGGGLVQPGGSLRLSCAASGFTFSSFGMHWVRQAPGKGLEWVSYISSGSSIIYYADSVKGRFTISRDNAKNSLYLQMNSLRAEDTAVYYCARGGRRLFSPDYWGQGTLVTVSS VL: DIVMTQSPDSLAVSLGERATINCKSSQSLLHSGNQKNYLTWYQQKPGQPPKLLIYWASTRESGVPDRFTGSGSGTDFTLTISSLQAEDVAVYYCQNDYSYPFTFGSGTKLEIKR	0.00416	59400	0.07	–
XENP28538 (humanized variant of mAb C, bivalent human IgG1) (antibody, V domains shown, Human IgG1 with E233P/L234V/L235A/G236del/S267K) VH: EVQLVESGGGLVKPGGSLRLSCAASGFTFSSFGMHWVRQAPGKGLEWVGYISSGSSIIYYADPVKGRFTISRDNSKNTLYLQMNSLKTEDTAVYYCARGGRLVWSPDYWGQGTLVTVSS VL: DIVMTQSPDSLAVSLGERATINCKSSQSLLNSGNQKNYLTWYQQKPGQPPKLLIYWASTRESGVPDRFTGSGSGTDFTLTISSLQAEDVAVYYCQNDYSYPFTFGSGTKLEIKR	–	–	–	no binding
H1.217_L1.1 (XENP32833) (antibody, human IgG1, kappa, V domains shown, VH substitution V111S/W112F (Xencor #); V99S/W100F (Kabat); also called mAb C[PD1]_H1.217_L1.1_IgG1_PVA_/S267K) VH: EVQLVESGGGLVQPGGSLRLSCAASGFTFSSFGMHWVRQAPGKGLEWVSYISSGSSIIYYADSVKGRFTISRDNAKNSLYLQMNSLRAEDTAVYYCARGGRLSFSPDYWGQGTLVTVSS VL: DIVMTQSPDSLAVSLGERATINCKSSQSLLHSGNQKNYLTWYQQKPGQPPKLLIYWASTRESGVPDRFTGSGSGTDFTLTISSLQAEDVAVYYCQNDYSYPFTFGSGTKLEIKR	0.023	143000	0.161	–
H1.223_L1.1 (XENP32839) (antibody, human IgG1, kappa, V domains shown, VH substitution R109H/L110Q/W112F (Xencor #); R97H/L98Q/W100F (Kabat); also called mAb C[PD1]_H1.223_L1.1_IgG1_PVA_/S267K) VH: EVQLVESGGGLVQPGGSLRLSCAASGFTFSSFGMHWVRQAPGKGLEWVSYISSGSSIIYYADSVKGRFTISRDNAKNSLYLQMNSLRAEDTAVYYCARGGHQVFSPDYWGQGTLVTVSS VL: DIVMTQSPDSLAVSLGERATINCKSSQSLLHSGNQKNYLTWYQQKPGQPPKLLIYWASTRESGVPDRFTGSGSGTDFTLTISSLQAEDVAVYYCQNDYSYPFTFGSGTKLEIKR	0.00436	123000	0.0354	–
XENP28539 (humanized variant of mAb C, bivalent human IgG1) (antibody, V domains shown, Human IgG1 with E233P/L234V/L235A/G236del/S267K) VH: EVQLVESGGGLVKPGGSLRLSCAASGFTFSSFGMHWVRQAPGKGLEWVGYISSGSSIIYYADPVKGRFTISRDNSKNTLYLQMNSLKTEDTAVYYCARGGRLVWSPDYWGQGTLVTVSS VL: DIVMTQSPLSLPVTPGEPASISCRSSQSLLNSGNQKNYLTWYLQKPGQPPQLLIYWASTRESGVPDRFTGSGSGTDFTLKISRVEAEDVGVYYCQNDYSYPFTFGSGTKLEIKR	–	–	–	no binding

Continued by falling Kd (human PD-1-His [2]), values first:

koff (human PD-1-His [1]) [s⁻¹]	kon (human PD-1-His [1]) [M⁻¹ s⁻¹]	Kd (human PD-1-His [2]) [µM]	binding result (human PD-1-His [3])	Binder
0.00489	197000	0.0248	–	H1.219_L1.1 (XENP32835) (antibody, human IgG1, kappa, V domains shown, VH substitution R109S/V111Y/W112L (Xencor #) but R97S/V99Y/W100F in the Kabat column: the two columns disagree; also called mAb C[PD1]_H1.219_L1.1_IgG1_PVA_/S267K) VH: EVQLVESGGGLVQPGGSLRLSCAASGFTFSSFGMHWVRQAPGKGLEWVSYISSGSSIIYYADSVKGRFTISRDNAKNSLYLQMNSLRAEDTAVYYCARGGSLYLSPDYWGQGTLVTVSS VL: DIVMTQSPDSLAVSLGERATINCKSSQSLLHSGNQKNYLTWYQQKPGQPPKLLIYWASTRESGVPDRFTGSGSGTDFTLTISSLQAEDVAVYYCQNDYSYPFTFGSGTKLEIKR
0.0013	66500	0.0196	–	H1.218_L1.1 (XENP32834) (antibody, human IgG1, kappa, V domains shown, VH substitution L110Q/W112F/S113T (Xencor #); L98Q/W100F/S100aT (Kabat); also called mAb C[PD1]_H1.218_L1.1_IgG1_PVA_/S267K) VH: EVQLVESGGGLVQPGGSLRLSCAASGFTFSSFGMHWVRQAPGKGLEWVSYISSGSSIIYYADSVKGRFTISRDNAKNSLYLQMNSLRAEDTAVYYCARGGRQVFTPDYWGQGTLVTVSS VL: DIVMTQSPDSLAVSLGERATINCKSSQSLLHSGNQKNYLTWYQQKPGQPPKLLIYWASTRESGVPDRFTGSGSGTDFTLTISSLQAEDVAVYYCQNDYSYPFTFGSGTKLEIKR
0.00218	193000	0.0114	–	H1.216_L1.1 (XENP32832) (antibody, human IgG1, kappa, V domains shown, VH substitution R109S/L110V/V111L/W112F (Xencor #); R97S/L98V/V99L/W100F (Kabat); also called mAb C[PD1]_H1.216_L1.1_IgG1_PVA_/S267K) VH: EVQLVESGGGLVQPGGSLRLSCAASGFTFSSFGMHWVRQAPGKGLEWVSYISSGSSIIYYADSVKGRFTISRDNAKNSLYLQMNSLRAEDTAVYYCARGGSVLFSPDYWGQGTLVTVSS VL: DIVMTQSPDSLAVSLGERATINCKSSQSLLHSGNQKNYLTWYQQKPGQPPKLLIYWASTRESGVPDRFTGSGSGTDFTLTISSLQAEDVAVYYCQNDYSYPFTFGSGTKLEIKR
